Assay: soluble on expression in E. coli; label from the status in PepcDB or PDB records

Sequence | soluble on expression in E. coli
MGSDKIHHHHHHMLVVGASGSGKSTFANCINGLIPFKTKGNITGELYINNQDATVSCLHDRSNVVGTVLQDTDGQFIGLTAAEDMAFLLENNCVEQDDMKKNVSYWAEKVGMIEHLNHRPQDLSGGQKQRVSLGGILIHRTPILILDEPLANLDPATGHETLRLLNNIHEETKSTMIIVEHRLEESLDDTFDRVLLFKDGKIIANTTPSDLLKSSKLKEAGIREPLYCTALKYAEVDVESIDNLANLRDVCMSEHVKFKVKKWIDETSANNDNKYKSEPLLELNEVCVQYSDYSNSVLNNVQLNVYRREMLSIVGHNGAGKSTLAKAICGFLDITGNIQFCNRGFNQLSISERSEFVGYVMQNPNHMISEKMIYDEVALGLRARGMKESDIKIRVENVLKICGLYAFRNWPIAALSYGQKKRVTIASVLVLNPEIIILDEPTAGQDFYHYNEIMSFLIELNRQGKTIIMITHDMHLLSEYSSRTVVLSKGQVVADTTPVLILNDKKICEIASLRQTSLFEMAEYIGISEPQKLVQLFINHDRKVRRQ | not soluble
QIIKDVVVWKTSLQDSDTPEKTLVFTATIKPGWHLYDQNLPEDGPTSTEFLFDKMTGAKLVGKAIPDKAPVNRYDKQFEMDLRWYEKTVSFRQKIQVTDPAKFSIKGGVRFMACNDENCLPPETSDFSFDASMIKSKAAAPDTEAEAAEAVAAETAADTTSQTDAAEALSSKADLWTPVVSELRAYGDDTLKQAESAPWKIFLYG | not soluble
MGSDKIHHHHHHMNLKDKTLLITGIDEFVGLRTAELAIAQGMKVRGLKSSTEQNKQLQNLGVEIIIGSITDSTIAQKACQGVDIVLHTDQLAEEAGAIKNFRDVNVGGTVNMAKAAKQAGVKTFVHLSSVMVYGFNYPNGVTESGPLSGENNPYCETKIEAETAVLELNNPPDFGIIVIRAGDVYGPGSIPWIVRPVLMMRQKLFACANDGKGVINHVYIDNLIDGIFLAIEKETYGEIFNITDGQETSWKEYFMRLAAMEGLSAPLSLPKDEIKLFLKLRVQGQKLFRKKVDILPESIDFMTRPYACSIVKAQSMLNYKPTIHLEEGMQRTHEWLQKTDIQSLIK | not soluble
MGSDKIHHHHHHMKFTDIEYFDKLSELESFSKTAIFFNVSQPTISFAIQRLENEMKKTLINRNQSHGEISLTEAGKVFEKHAKKILQEVVAAHEEIDRMNQPTIEFGLPQIIGNYYLPKLVKHFVGNPFFQNVATNEAGSNLLLGALKNRRLDLAIISSVEPVKIEGLETIEIDRKKYSIVVNKDNPLAKQKKVSFEDLADEKFVSLKEGNVHPIAFRKLEETYNVYPKIIYETPDINILKKMIAEKTGIGFIVEIAVEKQDNLATLELSNEKVPEFIISFVYKKDLQIPGIKRIVEELRNNSVFDQDR | not soluble
MVLTEDFGYPLSRIKLEYEVTFGREKKRADIVIFDKQQTDSPYIIIEVKKPKLKDGKEQLKSYCNATGAPIGVWSNGKSISYYHRKDPNYFEDISNIPRADQKLSDILSERWTIADLIEKDKLISERKSLKDLILEMEDEVLAGAGVDVFEEVFKLIFTKLFDEMESGRNNERNLEFRNYGDTETELKERIQNLFDKARDKWEGVFSPDAKIQLTPSHLSVCVASLQDVKLFNSNLDVVDEAFEYLINKSSKGEKGQYFTPRYVIDMCVKMLNPTANEKMIDTASGSCGFPVHTIFHVWENILKEKGLERSHLFTLEQKPAECTDYVNDNVFAIDFDEKAVRVARTLNLIAGDGQTNVLHLNTLDYERWEQNLDSEDWQDTYFEGWKKLKKLRTRKDSYRDFTFDIVMANPPFAGEVKESRILAKYDMSRSMSLEKVKIAPKGATIVEGEPTFSEALANTGETIYQMSDGTYRKTKLKQAGNMSRDILFVERNLDFLKPGGRMAIVLPQGRFNNSSDKALREYIADRCRILAVVGLHGNVFKPHTGTKTSVLFVQKWDEELCPRVEDYNIFFATMQEPSKDNSGDKIYRSTTNEEGENVPLLDTHGHLIVKHDLFNHDGLTEDGIAEAFAEFAKKERLSFFADAPLTK | not soluble
MNASTSSPSQQLQQAINSTIDKECAVCYSEMILPTTIPSCGHKFCFICLKGVSVSNNGDCPICRGPIDSQIFKKPLQAVDLKMDIPGTPSAAAPDPVVKQEVDDEDVKPDVKKLQEELKKQQAAAAAQKMFWLYRGRHQGWWRFDPRIEKEIEEAFTHQMPMTEVTICGNPYIVDFSQMCQYPKNQSNYSRNVKYGSRLKVLKILAKIDRKSAF | not soluble
MIEVAEIIAREIRRGKIVEIGVGFYLEVAKRLRESGIDILVVDINEKAINYARKQGIKGVVDDIFNPTLGIYKDAKAIYSIRPAPEMMKPLLDLARKLKIPLYIVPLTGDRTPNGMKLINYKGIPIYKWEP | soluble
MRMNLTNHFLVAMPGMKDPYFQNSVIYVCEHNEEGAMGLMINAPVDITVGNMLKQVDVQPVHPRLFEASLDRPVYNGGPISEDRGFILHKPKDYYESSIQMTDDLAVTTSRDILSVLGTEAEPSDYLVALGYSGWSAGQLENELVENSWLTIEATPEIIFDTPITERWKKAVEKLGIDPSQLSADAGHALEHHHHHH | soluble
MDALVANYASDSDSDGDAPAATAGEAAPVPPEPSALLPPPPLDLLQPPNFVDCSTMAQGSRVRSFPHVEGNYALHVYIPVVIPSDAKKHLVLVMRRAASFVPDLYAIDADYALSELCKDEQKLEKVLLSREFHVSLGRTVAIQVHQIESLVAMLRQKFRSQQRYWMDFNKWEHFVNDDCTRSFLSLEVTSTGLPEISKQITMVDDVYRLHGLPEFYKNPRPHISLAWALGDVSCKLKQAIKEIEKSQSSLGTSQISNLRCKFSHVVCKIGKKVYDICKLAD | not soluble
MCPPYGANKFSRKKVMYVIVDIQGQQMKVEQGRRLFVHHIKDVESGASVEFDKVLLVDNNGAITVGSPLVEGAKVVCEVLTPLVKGDKVLIFHKKRRKGYRKLNGHRQQFTEILVKEVVA | not soluble
MGSDKIHHHHHHMTDSPHTIRNPAAPLAERLRPRTLDDVVGQSHLLGPGKPLRLAFESGKPHSMILWGPPGSGKTTLARLMAHAFDAEFIAISAVLSGVKDIREAIERAQITLQRTGRATLLFVDEVHRFNKAQQDAFLPHVEQGLITFIGATTENPSFEVNGALLSRAQVYALKALTDQELHQLFERARSIAMLDLEFENTAIELLIGFADGDARRLLNLLEQVQNAAETEEIIKIDADYLSRVLARNVRRFDKGGDAFYDQISALHKSIRGSSPDAALYWLCRMLDGGADPRYIGRRLVRTATEDIGLADPRALTLALNACEVFERLGSPEGELALAQATLYLACAPKSNAAYVAYKQARAFIKEDISRPVPIHLRNAPTRLMREMGHGAAYRYAHDESESYAAGENYFPDNILAVQFYRPTTHGLEAKIGEKLAYLRSLDEKTGKKRN | not soluble
GMALTPDQMPDRAEVVFTCNGKAVGKMRNELDVAMVKPFEERFALATDEGAFHGGDASAPPPLALFIAGLTGCVMTQIRAFAKRLKVTVTDLDVECRVVWDWAKAGPVYETGPKSFEIDIILHSPDPIEAQQALIEAAKKGCFLEQTLGQANTIRHRLKVGDTFIDA | soluble
MVTAPPTDYFASFTTNDDALVLASVSSDAELELLNVWLRTHRREHPDSKVDVLQLPAADEPAPGDLARLVEELEADENRLVVPVRVFWVPGGLPTRLKVVALMSGRDTYRPPEILQRRILRKDPSRARVVAGEPAKVSELRKQWSETTVGENPRDFAHFVLRRAVLAIERVELRLLGPEYKSPRLVKPEMMASSRFREGLAKIPGATPEKAGEMLDELSTGWSRFSVDLIPSLGRAIFSRGFDPRIDYDRIEIEQMRHALEQHPAVLLFSHRSYLDGVIVPVAMQENRLPPVHTFAGINLSFGIMGPIFRHSGVIFLRRKLDDPLYKYVLRQYVGYLVEKRFNLNWSIEGTRSRTGKMLPPKLGLLAYVADAYLDGRSDDILLQPVSISFDQLHETAEYAEYARGGEKRPEGLSWLYNFVKAQGERNYGKIYVRFPEAVSMRQYLGEPHGPLVEDEAAKRLAMQKMAIEVAWRILRVTPVNATNLVSALLLTARGVALTLEQLHQALQDSLDYLEQKKTPVTNSAMRLRTLEGVRAAVDALSGGHPVTCVDTGREPVWRIAPENELEAAFYRNSLIHAFLETSLVELALAYAARTADAEGDPLQAFWTQVVRLRDLLKFDFYFADSAAFHQNVAEEMSWHADWEQQVRAGRDGIETLMRAKRPLLADAMLRPYFEAYTIVADVLRDAPAEIAEKDLTKLALGVGQQYVAQGRVRNNESVSALLFATARQVAADQGLLEHGPDLMEQRRAFRDELRGILRDLDTVDRYARELFAARERERRTKRDEAVLEHHHHHH | soluble
MSLRTKSWTDDLKVCNQTGVGEAINQIYKDDGRRCEGYESRDKKCLCISDNNTSLYAILSGHNGVTVAENALQEMAAELLLGQLNVCNTDEAVKELIRQSFMSVEKGYFDSINPHVATKTAIQLHLSADGMNQYEISQQFENVLQKLDSLNNALSVGSSAVLALIHRSHLYLGNIGNCRALLCKTDEHDTLTVTQLSVDHNLLNAEEAARLFRLGLMAQNFEGVPLYSTRCIGNYLGKAGYKDCNFLSSATAEPVIFEPEIVGGIQITPACRFLVLMSSGLCRALHEIFPGDASTGNRELVRMISEEFQNQSTLGGVAQSVVHRIVQAHHDTYMQLVEEHRSVTFNSRDDVTLLIRNFNYAEGHHHHHH | soluble
MNKELTFNDLPMVVAQLRDEVVGMKQMIVSLQSQNKPHKANTHIPMSVEEASAYLKMPMATLYMKLGNGSIPATKPGKRYCLYQDELDKWLETNRKNPVPLTAEEENAAILAGNKRKPKPLNW | not soluble
MGKATWRQVWERARALAGAAALAVLAGCAAPGAQDPGQARNTAREAYIYAYPMLYHYRSMYEQAIDTASPAYLGGFGVFQHRAEPYTPQSVDVATPNVDTLYSRAWLDLRAEPWVLSLPAVPKSRYNAFQLVDMYTYNLAYLGTRATGFGSGHYLIAGPGWTGPVPKGITQVVRADTDFVAVLGRTALNGPADIKAVHALQARYGLRPLSAYTGTAAPAGAPPVDWLPWNEQRASSIGFIAYLNQLLAHTQPQPESEADMMARFARIGVAPGRDFEPARLDAATRRAMDAGIVDAQQAIEQGARHAAAPATPASLYGSREQLGGDYLKRAVAAAVGIYGNTADEAIYLTIGEDAQGRPLDGARAYELRFAPGRQPPVRFFWSISVYALPARGLAENPIDRYAIGSRTKGIKRGRDGSLTVYLQHDAPARAHAPNWLPTPAGPFVVVARFYGPQPALRDGAWVMPALVPARLEHHHHHH | not soluble
GSSGSSGHESETTTSLVLERSLNRVHLLGRVGQDPVLRQVEGKNPVTIFSLATNEMWRSGDSEVYQLGDVSQKTTWHRISVFRPGLRDVAYQYVKKGSRIYLEGKIDYGEYMDKNNVRRQATTIIADNIIFLSDQTKEKE | soluble
MNDEINEPPPNICEQCLGDEANIRMTKIPQGSECKICTLPFTLYHFKTSKRSNNIIKTLICVRCATQRNICQCCMLDSRWHIPIQLRDHLISLVNEENVMTEEAKNDMMKRFLSLKNVKLGGAQITSDPSEADNIVDKLKNILLRATSDGPSTPLIKNTTALYKNEKGANEVKNLEKYASVDISHILKKLPLNESFLKNPSTKSFFLYNIDASIPEWKITDTVSQLLGIKKWKDGNSLSLIVNHKAKCGGLRFQSSELGERFVSKISETLVTPKGLKRGVLLIDRFRIFIIPWSSGFSAASFGTNTAENIKLSLSLNKLIQLELGLSFPTKSTDNAKNDKKKTSKKVHKDRSKKSKPRANKLTI | soluble
MAESVFAERIVQNLLDTDFYKLTMMQAVLHNYPNAEVEWEFRCRNAEDLRPYLAEIRYQIERLAEVEVTADQLAFLERIPFMKPDFIRFLSLFRFNLRYVHTGIEDGQLAIRLRGPWLHVILFEVPLLAIVSEVRNRYRYREVVLEQVGEQLYRKLDWLSAQASSEELAEFQVADFGTRRRFSYRTQEEVVHILKRDFPGRFVGTSNVHLAREYDLKPIGTMAHEWLMAHQQLGPRLVDSQQAALDCWVREYRGQLGIALTDCITMDAFLDDFDLYFAKLFDGLRHDSGDPLAWAEKAIAHYRRLGIDPLSKTLVFSDGLDMPKALQLFRALRGKINVSFGIGTNLTCDIPGVEPMNIVLKMTACNGHPVAKISDAPGKTQCRDENFVAYLRHVFNVPA | not soluble

— the DeepSol protein solubility set
